Results as given in patent publication US20210355205A1.

What was measured:
[1] = biological target: Cynomolgus IL-5 (cynomolgus monkey); assay: cell-based or functional assay
[2] = biological target: recombinant human IL-5 (human) (UniProt P05113); assay: cell-based or functional assay

Mean (pM): mean IC50, TF-1.6G4 cell line proliferation assay [1]: 584 pM | Mean (pM): mean IC50, TF-1.6G4 cell line proliferation assay [2]: 534 pM
Substance: Mepolizumab (antibody)
